In patent US20190359722A1 (TOYO UNIVERSITY, published 2019):

Target: T1, full-length human EPHA2 expressed on 293T cells (pcDNA-DEST40-EPHA2) (human, UniProt P29317 24-976)
T1 construct: The stop codon was removed before transfer into pcDNA-DEST40; also called EPHA2-expressing 293T cells
Assay: flow cytometry, hybridoma supernatant on EPHA2-transfected 293T cells
Protocol: 293T cells were seeded at a density of 5×10⁴ cells/cm² on a collagen type I-coated flask (IWAKI), and were then cultured in DMEM supplemented with 10% FBS at 37° C. in 5% CO₂ under a humidified atmosphere overnight. On the following day, the 293T cells were transfected with each of pcDNA-DEST40-EPHA2 and pcDNA-DEST40-ERBB2 (negative control), using Lipofectamine 2000 (Invitrogen, Thermo Fisher Scientific), and thereafter, the resulting cells were further cultured at 37° C. in 5% CO₂ under a humidified atmosphere overnight. On the following day, the transfected cells were treated with trypsin, and were then washed with DMEM supplemented with 10% FBS. The resulting cells were suspended in 5% FBS-containing PBS. These cells were used in Cell-ELISA and flow cytometric analysis.
In order to eliminate false-positive results in the Cell-ELISA, the specific binding ability of antibodies generated by the hybridomas that had been determined to be positive in the Cell-ELISA was confirmed by flow cytometry. The cells prepared in the above 1)-6-1 were mixed with a culture supernatant of the hybridomas, and the obtained mixture was then incubated at 4° C. for 1 hour. […]

T1 sequence (P29317 24-976 limits assumed): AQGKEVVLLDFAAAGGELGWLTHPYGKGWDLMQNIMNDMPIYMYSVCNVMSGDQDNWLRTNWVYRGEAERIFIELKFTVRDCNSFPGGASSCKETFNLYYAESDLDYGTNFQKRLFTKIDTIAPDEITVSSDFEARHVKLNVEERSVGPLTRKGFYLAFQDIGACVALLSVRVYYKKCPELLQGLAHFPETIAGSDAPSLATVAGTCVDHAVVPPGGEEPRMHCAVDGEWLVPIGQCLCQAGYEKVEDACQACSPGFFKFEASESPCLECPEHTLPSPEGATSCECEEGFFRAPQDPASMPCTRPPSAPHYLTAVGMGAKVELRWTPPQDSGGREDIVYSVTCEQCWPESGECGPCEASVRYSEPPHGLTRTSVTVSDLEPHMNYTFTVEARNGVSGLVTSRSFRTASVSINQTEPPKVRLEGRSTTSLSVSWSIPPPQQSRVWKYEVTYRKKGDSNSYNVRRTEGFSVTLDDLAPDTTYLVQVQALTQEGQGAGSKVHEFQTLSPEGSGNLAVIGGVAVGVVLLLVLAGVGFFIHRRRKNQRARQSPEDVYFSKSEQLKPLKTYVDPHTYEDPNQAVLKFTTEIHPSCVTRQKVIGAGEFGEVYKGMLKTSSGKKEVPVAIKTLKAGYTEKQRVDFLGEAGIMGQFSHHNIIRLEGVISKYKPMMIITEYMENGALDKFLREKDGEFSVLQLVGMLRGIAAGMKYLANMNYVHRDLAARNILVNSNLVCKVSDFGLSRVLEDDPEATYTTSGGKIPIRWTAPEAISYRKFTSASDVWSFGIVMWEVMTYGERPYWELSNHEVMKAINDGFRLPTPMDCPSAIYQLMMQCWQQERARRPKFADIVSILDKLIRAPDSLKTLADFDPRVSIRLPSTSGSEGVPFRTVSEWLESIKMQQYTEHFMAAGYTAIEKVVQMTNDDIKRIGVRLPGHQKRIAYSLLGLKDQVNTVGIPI

Binder	binding result
mouse anti-EPHA2 monoclonal antibody 230-1 (antibody, V domains shown, The variable regions were found by 5'-RACE; Used unlabeled as capture antibody and biotin-labeled as detection antibody; also called biotin-labeled antibody 230-1) VH: EVQLVESGGGLVKPGGSLKLSCEASGFTFSDYYMYWVRQTPEKRLEWVATISDDGSFTHYLDSVKGRFTISRDNAQNNLYLQMSSLKSDDTAMYYCARDGYRYDRPFAYWGQGTLVTVSA VL: DIVMTQSHKFMSTSVGDRVRITCKASQDVNTAVAWYQQKPGQSPKLLIYWASTRHTGVPDRFTGSGSGTDYSLTISSVQAEDLALYYCQQHYSTPYTFGGGTKLEIKR	binds
mouse anti-EPHA2 monoclonal antibody 57-1 (antibody, V domains shown, The variable regions were found by 5'-RACE; Used unlabeled as capture antibody and biotin-labeled as detection antibody; also called biotin-labeled antibody 57-1) VH: QIQLVQSGPELKKPGETVKISCKGSGYTFTNYGMNWVKQAPGKGLKWMAWINTDTGEPIFVEEFKGRFAFSLETSASTAYLQINNLTNEDTATYFCARSMGGFANWGQGTLVTVSA VL: DIVMTQSPATLSVTPGDRVSLSCRASQNISDYLHWYQQKSHESPRLLIKYASQSISGIPSRFSGSGSGSDFTLTINSVEPEDVAMYYCQNGHTFPTFGAGTKLELKR	binds
